Measured values as given in patent US20180009871A1 (INTARCIA THERAPEUTICS, published 2018).
Where no end group is shown, it is not given here. [ ]: non-standard residue; d: D form. Formula III = not defined here; Formula II = not defined here; Aib = CC(C)(N)C(=O)O

What was measured:
[1] = biological target: human GLP-1 receptor (GLP-1R) (human, UniProt P43220 24-463); assay: cell-based or functional assay
[2] = biological target: human glucagon receptor (GCGR) (human, UniProt P47871 26-477); assay: cell-based or functional assay

Sequence of human GLP-1 receptor (GLP-1R) (P43220 24-463): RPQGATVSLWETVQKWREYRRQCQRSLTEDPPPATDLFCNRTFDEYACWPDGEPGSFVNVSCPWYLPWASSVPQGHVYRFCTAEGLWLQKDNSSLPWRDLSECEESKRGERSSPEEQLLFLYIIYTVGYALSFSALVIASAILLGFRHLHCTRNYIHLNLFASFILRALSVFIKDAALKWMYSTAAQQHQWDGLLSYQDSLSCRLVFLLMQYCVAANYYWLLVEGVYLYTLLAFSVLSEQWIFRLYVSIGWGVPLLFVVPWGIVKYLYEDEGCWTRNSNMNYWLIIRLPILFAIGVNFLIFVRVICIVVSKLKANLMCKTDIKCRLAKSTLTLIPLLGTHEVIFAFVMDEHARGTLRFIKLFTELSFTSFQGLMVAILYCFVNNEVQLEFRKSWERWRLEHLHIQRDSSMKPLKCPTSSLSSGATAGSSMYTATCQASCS

| Binder | GLP-1R pEC 50 [1] [pEC50] | GluR pEC 50 [2] [pEC50] |
| --- | --- | --- |
| YSQGTFTSDK(Formula II)SKYLDAARAQEFVKWLEDEPKSKSPPPS-NH2 (reading uncertain) [Compound B36] | 8.1 | 11.5 |
| WSQGTFTSDYSKYLD[Aib]KRAQEFVK(Formula II)WLEDEPSSGAPPPS-OH (reading uncertain) [Compound B18] | < 6 | 10.2 |
| YSQGTFTSDYSKYLDAARAQEFVK(Formula III)WLEDEPKSKSPPPS-NH2 (reading uncertain) [Compound B38] | 6 | 9.6 |
| YSHGTFTSDK(Formula III)SKYLD[Aib]KRAQEFVIWLEDEPSSGAPPPS-OH (reading uncertain) [Compound B32] | 7.8 | 9.4 |
| YSQGTFTSDYSKYLDK(Formula II)ARAQEFVKWLEDEPKSKSPPPS-NH2 (reading uncertain) [Compound B35] | 6.6 | 11.1 |
| WSQGTFTSDYSKYLDK(Formula III)KRAQEFV[Aib]WLEDEPSSGAPPPS-OH (reading uncertain) [Compound B23] | 6.5 | 9.5 |
| YSHGTFTSDYSKYLDK(Formula II)KSAQEFV[Aib]WLEDEPSSGAPPPS-OH (reading uncertain) [Compound B11] | 6.3 | 10.3 |
| YSHGTFTSDYSKYLDK(Formula II)ARAQEFVKWLEDEPSSGAPPPS-NH2 (reading uncertain) [Compound B43] | < 6 | 11.1 |
| YSHGTFTSDYSKYLDK(Formula III)KYAQEFV[Aib]WLEDEPSSGAPPPS-OH (reading uncertain) [Compound B7] | < 6 | 8.6 |
| YSQGTFTSDYSKYLDK(Formula III)ARAQEFVKWLEDEPKSKSPPPS-NH2 (reading uncertain) [Compound B39] | 6 | 10.9 |
| YSHGTFTSDYSKYLDK(Formula II)KRAQEFVIWLEDEPSSGAPPPS (reading uncertain) [Compound B26] | < 6 | 11 |
| YSHGTFTSDYSKYLDK(Formula III)KSAQEFV[Aib]WLEDEPSSGAPPPS-OH (reading uncertain) [Compound B15] | < 6 | 9.9 |
| WSQGTFTSDYSKYLD[Aib]KRAQEFV[Aib]WLEDEPSSK(Formula II)APPPS-OH (reading uncertain) [Compound B17] | < 6 | 10.5 |
| WSQGTFTSDYSKYLDK(Formula II)KRAQEFV[Aib]WLEDEPSSGAPPPS-OH (reading uncertain) [Compound B19] | 6.3 | 10.6 |
| YSQGTFTSDYSKYLDAARAQEFVK(Formula II)WLEDEPKSKSPPPS-NH2 (reading uncertain) [Compound B34] | < 6 | 9.8 |
| YSHGTFTSDYSKYLD[Aib]KRAQEFVIWLEDEPSSK(Formula III)APPPS-OH (reading uncertain) [Compound B29] | 7 | 9.8 |
| YSHGTFTSDYSKYLDSARAQEFVKWLEDEPSSK(Formula II)APPPS-NH2 (reading uncertain) [Compound B41] | < 6 | 10.6 |
| YSHGTFTSDK(Formula II)SKYLDSARAQEFVKWLEDEPSSGAPPPS-NH2 (reading uncertain) [Compound B44] | 7.2 | 11.9 |

| Binder | GLP-1R pEC 50 [1] [pEC50] | GluR pEC 50 [2] [pEC50] |
| --- | --- | --- |
| YSQGTFTSDYSKYLDAARAQEFVKWLEDEPKSK(Formula II)SPPPS-NH2 (reading uncertain) [Compound B33] | < 6 | 10.6 |
| YSHGTFTSDK(Formula II)SKYLD[Aib]KSAQEFV[Aib]WLEDEPSSGAPPPS-OH (reading uncertain) [Compound B12] | 7.2 | 11.5 |
| YSHGTFTSDYSKYLD[Aib]KRAQEFVIWLEDEPSSK(Formula II)APPPS-OH (reading uncertain) [Compound B25] | < 6 | 10.5 |
| YSHGTFTSDK(Formula III)SKYLD[Aib]KSAQEFV[Aib]WLEDEPSSGAPPPS-OH (reading uncertain) [Compound B16] | 8.3 | 8.5 |
| YSHGTFTSDK(Formula II)SKYLD[Aib]KRAQEFVIWLEDEPSSGAPPPS-OH (reading uncertain) [Compound B27] | 6.6 | 11.5 |
| YSHGTFTSDYSKYLDK(Formula III)KRAQEFVIWLEDEPSSGAPPPS (reading uncertain) [Compound B31] | 7.4 | 10.6 |
| WSQGTFTSDK(Formula III)SKYLD[Aib]KRAQEFV[Aib]WLEDEPSSGAPPPS-OH (reading uncertain) [Compound B24] | 6.8 | 8.2 |
| YSQGTFTSDYSKYLDAARAQEFVKWLEDEPKSK(Formula III)SPPPS-NH2 (reading uncertain) [Compound B37] | 6.2 | 10.1 |
| YSHGTFTSDYSKYLDSARAQEFVK(Formula II)WLEDEPSSGAPPPS-NH2 (reading uncertain) [Compound B42] | < 6 | 9.7 |
| YSHGTFTSDYSKYLD[Aib]KRAQK(Formula III)FVIWLEDEPSSGAPPPS-OH (reading uncertain) [Compound B30] | 7 | 9.7 |
| YSHGTFTSDYSKYLD[Aib]KSAQEFV[Aib]WLEDEPSSK(Formula II)APPPS-OH (reading uncertain) [Compound B9] | < 6 | 11.1 |
| YSQGTFTSDK(Formula III)SKYLDAARAQEFVKWLEDEPKSKSPPPS-NH2 (reading uncertain) [Compound B40] | 7.2 | 11.9 |
| YSHGTFTSDK(Formula III)SKYLD[Aib]KYAQEFV[Aib]WLEDEPSSGAPPPS-OH (reading uncertain) [Compound B8] | < 6 | 10.6 |
| YSHGTFTSDYSKYLD[Aib]KSAQEFV[Aib]WLEDEPSSK(Formula III)APPPS-OH (reading uncertain) [Compound B13] | < 6 | 9.2 |
| YSHGTFTSDYSKYLD[Aib]KSAQEFVKWLEDEPSSGAPPPS-OH (not fully specified (residue 24); printed as YSHGTFTSDYSKYLD(Aib)KSAQEFVK****WLEDEPSSGAPPPS-OH; also: structure of Formula II substituent not given here) [Compound B10] | < 6 | 9.9 |
| WSQGTFTSDK(Formula II)SKYLD[Aib]KRAQEFV[Aib]WLEDEPSSGAPPPS-OH (reading uncertain) [Compound B20] | 6.5 | 11.1 |
| YSHGTFTSDYSKYLD[Aib]KSAQEFVK(Formula III)WLEDEPSSGAPPPS-OH (reading uncertain) [Compound B14] | < 6 | 9.3 |
